According to the supplement of paper PMC9732359:
± gives the uncertainty stated by the source.

Assay: protein stability index of a GFP-peptide fusion (yeast GPS) (PSI 1-4); higher = more stable; sorted into four equal gates, so the index is relative within each strain
Method in brief: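 Plasmids in a pooled yeast library fused tiled 17-residue yeast protein peptides downstream of GFP and also expressed Cherry. Mid-log cultures grown without leucine were sorted into four equal gates by GFP/Cherry fluorescence ratio. Each gate's plasmids were PCR-amplified and Illumina-sequenced, and reads were matched to strains by barcodes. The protein stability index is derived by multiplying each gate's read frequency by its gate number and summing the results.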

Sequence | protein stability index (doa10∆) | protein stability index (pdr5∆) | protein stability index (san1∆) | protein stability index (ubr1∆)
TSSRGRDHKSYSQSPPR [SMC4] | 2.65 ± 0.046 | 2.81 ± 0.056 | 2.59 ± 0.088 | 2.83 ± 0.038
SGTSVFEVEMILMQQQM [SRP54] | 3.3 ± 0.084 | 3.23 ± 0.071 | 3.18 ± 0.07 | 3.22 ± 0.098
MRRNSKILNIIKCSQSS [POP5] | 1.92 ± 0.049 | 2.27 ± 0.082 | 2.1 ± 0.073 | 2.21 ± 0.046
SLYQVDPSGSYFPWKAT [PRE8] | 2.87 ± 0.1 | 2.66 ± 0.11 | 2.65 ± 0.093 | 3.25 ± 0.099
ELDRAAMNDKDLTMGQV [RPO21] | 3.29 ± 0.17 | 3.31 ± 0.14 | 2.8 ± 0.13 | 3.12 ± 0.097
INVLTDQNPIQVVVDAI [RPS5] | 2.19 ± 0.044 | 2.59 ± 0.038 | 2.44 ± 0.055 | 2.05 ± 0.031
MRRFILGTTEGDIKVLD [RPN14] |  |  |  | 1.25 ± 0.18
ALSLHREILCYSKDAKE [FAS2] | 1.78 ± 0.028 | 1.76 ± 0.027 | 1.85 ± 0.044 | 1.82 ± 0.021
GNAVTVTEDGTVVTVVS [RPL22A] | 1.38 ± 0.044 | 1.67 ± 0.078 | 1.45 ± 0.11 | 1.84 ± 0.065
DNKEKDFELEISWCSLS [PRE10] | 3.54 ± 0.12 | 3.13 ± 0.14 | 2.87 ± 0.13 | 3.13 ± 0.088
DRQLHEISTSKKNNLEF [RPN14] | 2.96 ± 0.064 | 3.13 ± 0.075 | 2.93 ± 0.071 | 3.17 ± 0.093
ILPTDGSAEFNVKYRAV [RPB7] | 2.57 ± 0.2 |  | 3.08 ± 0.13 | 3.48 ± 0.22
VDKELLEPGCSVLLHHK [RPT2] | 2.95 ± 0.16 | 2.8 ± 0.095 | 2.51 ± 0.17 | 2.66 ± 0.12
ASYVNIPVIALTDLDSP [RPS0A] | 1.92 ± 0.063 | 1.81 ± 0.064 | 1.61 ± 0.17 | 1.88 ± 0.046
NNDKREIQEELERFNKR [SMC1] | 2.49 ± 0.24 | 3.52 ± 0.13 | 3.4 ± 0.062 | 3.27 ± 0.068
RLSNEMHALKNRSEQNG [RGR1] | 3.32 ± 0.12 | 3.25 ± 0.17 | 3.09 ± 0.16 | 2.9 ± 0.12
DSSLQPEYFESPLQSSK [YMR129W/POM152] | 3.19 ± 0.2 | 2.98 ± 0.12 |  | 2.56 ± 0.13
KQEIMMSDLFTFDWFIK [ISW2] | 2.85 ± 0.075 | 2.6 ± 0.055 | 2.46 ± 0.07 | 2.9 ± 0.047
EFDEQYGTRPLVLPPVV [SNF2] | 3.08 ± 0.071 | 2.69 ± 0.063 | 2.86 ± 0.061 | 2.53 ± 0.046
AELDPSLRTPIAPKITP [SEC65] | 3.06 ± 0.1 | 3.05 ± 0.058 | 3 ± 0.082 | 3.13 ± 0.055
IEAEEAEEIGVEHLLRD [RPN8] | 3.1 ± 0.19 |  | 3.15 ± 0.13 | 3.23 ± 0.068
SVRTAVFSALKNLISRI [ECM29] | 2.34 ± 0.049 | 2.31 ± 0.045 | 2.03 ± 0.064 | 2.53 ± 0.035
IKFFWNNTHVGRQFCNR [YLR018C/POM34] |  | 1.68 ± 0.14 | 1.74 ± 0.27 | 1.9 ± 0.1
KAKSNQTQREKAPLQPN [IRR1] | 3.07 ± 0.058 | 3.24 ± 0.052 | 3.09 ± 0.035 | 3.07 ± 0.05
LSVVKYLLASLKDSKDF [RPN9] | 2.19 ± 0.12 | 2.67 ± 0.16 |  | 
QEQYQTNTFEGSGNNNE [SNU114] |  | 3.59 ± 0.23 | 3.3 ± 0.13 | 
ESQEKYMEPFDLDLNEQ [NSL1] | 3.29 ± 0.068 | 3.21 ± 0.057 | 3.35 ± 0.041 | 3.3 ± 0.045

Sequence | protein stability index (doa10∆) | protein stability index (pdr5∆) | protein stability index (san1∆) | protein stability index (ubr1∆)
MDFFNLNNNNNNNNTTT [SWI1] | 2.97 ± 0.072 | 3.33 ± 0.081 | 2.53 ± 0.13 | 2.35 ± 0.067
AAANNNIKPVEQHHINN [GAL11] | 2.97 ± 0.095 | 2.67 ± 0.066 | 2.72 ± 0.077 | 2.96 ± 0.062
LIEILRLRALQLYFQKN [RRI2] | 1.17 ± 0.049 | 1.28 ± 0.072 | 1.26 ± 0.12 | 1.04 ± 0.076
KSAENIIKMTIPYAAKL [RET1] | 2.27 ± 0.1 | 2.48 ± 0.11 | 2.89 ± 0.15 | 2.32 ± 0.09
TQVRVEFLEDTSRTIVR [RPS28A] | 3.37 ± 0.24 | 3.06 ± 0.13 | 2.91 ± 0.095 | 3.3 ± 0.14
NNVAYGKKRFRVVTVDG [SMC4] | 1.93 ± 0.11 | 2.1 ± 0.13 | 1.78 ± 0.13 | 1.83 ± 0.069
GEALPNKFHKSIREDIL [SIR2] | 3.16 ± 0.14 | 3.04 ± 0.11 | 2.7 ± 0.096 | 2.76 ± 0.07
ITHNTNITDNLFQELSK [GRR1] | 3.27 ± 0.091 | 3.55 ± 0.13 | 3.62 ± 0.22 | 3.18 ± 0.16
MNLQNNVLNQIHQILLP [CSE2] | 2.73 ± 0.062 | 2.73 ± 0.071 | 2.24 ± 0.12 | 3.21 ± 0.12
SEMLAKYSDILLKKATK [CDC53] | 2.62 ± 0.078 | 2.44 ± 0.12 |  | 2.47 ± 0.17
ETQEIKENDTVMNTKLL [ESC2] | 2.85 ± 0.086 | 3 ± 0.063 | 2.88 ± 0.1 | 3.18 ± 0.055
VSLGTSIMAVTFKDGVI [PRE3] | 3.55 ± 0.12 | 3.12 ± 0.18 | 3.27 ± 0.075 | 3.6 ± 0.074
LNHILEKSTQLQQKHEL [YGR119C/NUP57] | 2.52 ± 0.054 | 2.91 ± 0.042 | 2.66 ± 0.034 | 2.82 ± 0.035
GIDQYSFNVKENQPFHG [AAR2] | 2.65 ± 0.058 | 2.88 ± 0.058 | 2.82 ± 0.048 | 2.9 ± 0.051
RYDCSFCGKKTVKRGAA [RPL43A] | 2.07 ± 0.066 | 2.13 ± 0.071 | 2.21 ± 0.11 | 2.12 ± 0.053
VDDLRPEFAGYSKAAEP [ASC1] | 3.18 ± 0.23 |  |  | 3.67 ± 0.16
IMVLDASIGQAAEQQSK [SRP54] |  | 2.78 ± 0.29 | 3.18 ± 0.1 | 2.97 ± 0.13
RAKSCGVDAMSVDDLKK [RPL1A] | 2.54 ± 0.078 | 2.41 ± 0.078 | 2.69 ± 0.075 | 2.48 ± 0.05
RQQAYKTAQTLDENLNS [YJL041W/NSP1] | 2.84 ± 0.078 | 2.76 ± 0.079 | 3.12 ± 0.067 | 2.8 ± 0.05
SLYTSREPRVVSALQML [PUP1] | 2.66 ± 0.11 | 2.86 ± 0.065 | 3.03 ± 0.061 | 2.92 ± 0.048
QNKEIKAERVEDQKVVD [RPL6A] | 3.4 ± 0.067 | 3.44 ± 0.066 | 3.33 ± 0.041 | 3.35 ± 0.052
GTENTERPPLLPILPIQ [YOR098C/NUP1] | 2.42 ± 0.17 | 3.08 ± 0.17 |  | 
VYAQQSTVQTPITASMA [PGD1] | 1.59 ± 0.056 | 1.95 ± 0.079 | 1.51 ± 0.09 | 1.86 ± 0.042
DTQTFSVLLQQLLTPGS [YGL172W/NUP49] | 1.31 ± 0.13 | 1.43 ± 0.095 | 1.36 ± 0.1 | 1.48 ± 0.058
VPVRKFKGNNGVVVLRD [RPN2] |  | 2.88 ± 0.18 |  | 
GRTGRAANEGTAVSFVS [PRP28] | 2.7 ± 0.26 |  | 2.81 ± 0.27 | 2.7 ± 0.26
HSKRELDSGDDQPQSSE [BRR2] | 3.33 ± 0.073 | 3.38 ± 0.069 | 3.18 ± 0.057 | 3.19 ± 0.051
